Test results published in patent US20240262910A1 (Memorial Sloan Kettering, published 2024).

T1: mouse CD33 extracellular domain with 6xHis-tag (mouse, UniProt Q63994 18-240)
T1 construct: range 18-240; also called moCD33-His; moCD33(ECD)-His
T1 sequence: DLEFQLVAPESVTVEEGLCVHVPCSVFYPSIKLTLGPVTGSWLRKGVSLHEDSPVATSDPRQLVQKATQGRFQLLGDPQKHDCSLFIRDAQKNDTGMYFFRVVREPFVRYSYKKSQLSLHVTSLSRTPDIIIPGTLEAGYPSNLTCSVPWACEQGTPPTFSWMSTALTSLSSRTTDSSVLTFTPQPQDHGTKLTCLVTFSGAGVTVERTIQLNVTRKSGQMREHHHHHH


Legend:
[1] = biological target: T2, human CD33 extracellular domain with 6xHis-tag (human, UniProt P20138 18-259); assay: ELISA, hybridoma supernatant
T2 construct: Bought (R&D Systems, Acro Biosystems); also called huCD33-His; huCD33(ECD)-His

[2] = biological target: T3, human CD33 IgC2 domain only, on NIH-3T3 cells (human, UniProt P20138 140-364); assay: flow cytometry, hybridoma supernatant, 3T3-huCD33IgC2 cells, MFI
T3 construct: the whole entry is named here; also called 3T3-huCD33IgC2; 3T3 CD33-IgC2

[3] = biological target: T1, mouse CD33 extracellular domain with …; assay: ELISA on recombinant moCD33-His, purified hybridoma subclone antibody, readout RLU; antibody concentration not given
[4] = biological target: T4, human CD33, full length, on cells (human, UniProt P20138 18-364); assay: flow cytometry, hybridoma supernatant, U937 cells
T4 construct: NIH-3T3 cells stably overexpressing full-length human CD33, or AML lines U937 and Set2 with endogenous CD33; the cell line is named under assay; also called 3T3-huCD33; 3T3-CD33

[5] = biological target: T4, human CD33, full length, on cells; assay: flow cytometry, purified mAb, Set2 cells
[6] = biological target: T4, human CD33, full length, on cells; assay: flow cytometry, purified mAb, U937 cells
[7] = biological target: T5, human CD33 IgC2 type domain with 6xHis-tag (human, UniProt P20138 140-259); assay: ELISA, hybridoma supernatant, RLU
T5 construct: Produced at LakePharma; also called huCD33IgC2-His; CD33 IgC2-6xHis

[8] = biological target: T4, human CD33, full length, on cells; assay: flow cytometry, hybridoma supernatant, 3T3-huCD33 cells
[9] = biological target: T3, human CD33 IgC2 domain only, on NIH-3T3 …; assay: flow cytometry, hybridoma supernatant, 3T3-huCD33IgC2 cells
[10] = biological target: T5, human CD33 IgC2 type domain with …; assay: ELISA, hybridoma supernatant
[11] = biological target: T2, human CD33 extracellular domain with …; assay: BLI (Octet Red96e), antibody on anti-huFc sensor, huCD33-His as analyte, 1:1 fit
Method: The binding affinity to human CD33 protein was measured by biolayer interferometry (BLI) using an Octet Red96e. All experiments were carried out using kinetic buffer (PBS pH 7.4, 0.01% BSA, 0.002% Tween-20). The antibodies were captured by an anti-huFc biosensor and a 7-point, 2-fold dilution series of huCD33-His was used as analyte. The data was processed by double reference subtraction, and response curves were globally fit to a 1:1 Langmuir binding model. […] The binding affinities are similar to the H195 reference antibody.

[12] = biological target: T4, human CD33, full length, on cells; assay: flow cytometry, U937 cells
Method: (§1) Binding to CD33 on Cells. To assess the binding of TDI-Y-006, TDI-Y-007 and 1J19 to cell surface-bound CD33, 3T3 cells overexpressing CD33, as well as the U937 AML cell line, which expresses endogenous CD33, were used. U937 CD33KO or NALM6 were included as negative controls. Briefly, NALM6, U937 CD33+ and KO cells were blocked with human IgG Fc for 20 minutes on ice. The recombinant antibodies were then serially diluted starting at 100 μg/mL concentration and added for 30 minutes on ice. AlexaFluor 647-conjugated goat anti-human F(ab′)2 was added to cells for 30 minutes on ice, washed and analyzed by flow cytometry, normalized to secondary only staining (MFI ratio). EC50 values were determined by non-linear regression.

[13] = biological target: T4, human CD33, full length, on cells; assay: flow cytometry, 3T3-CD33 cells
Method: as §1

[14] = biological target: T2, human CD33 extracellular domain with …; assay: BLI, huCD33-His on anti-penta-His sensor, no competitor
Method: Epitope Binning. Epitope binning was carried out by a BLI competition experiment using an Octet Red96e. Human CD33-His was captured by an anti-penta-His biosensor. A 4×4 matrix with TDI-Y-006, TDI-Y-007, 1J19 and H195 was tested. A reference biosensor was used to determine the overall capture level for each antibody. After pre-binding the antibodies at saturation levels, the biosensors were dipped into antibody solutions to assess competition. […] However, when TDI-Y-006 was pre-bound, binding of TDI-Y-007 was blocked. […] Similarly, 1J19 and H195 have epitopes that partially overlap. No competition was observed between antibodies binding to the membrane-proximal IgC2 domain (TDI-Y-006 and TDI-Y-007) and antibodies binding to the membrane-distal IgV domain (1J19 and H195).

[15] = biological target: T4, human CD33, full length, on cells; assay: flow cytometry on 3T3 cells overexpressing human CD33, antibody titration, AlexaFluor 647 goat anti-human F(ab')2 detection, MFI ratio to secondary only
Method: as §1

T3 sequence (P20138 140-364 limits assumed): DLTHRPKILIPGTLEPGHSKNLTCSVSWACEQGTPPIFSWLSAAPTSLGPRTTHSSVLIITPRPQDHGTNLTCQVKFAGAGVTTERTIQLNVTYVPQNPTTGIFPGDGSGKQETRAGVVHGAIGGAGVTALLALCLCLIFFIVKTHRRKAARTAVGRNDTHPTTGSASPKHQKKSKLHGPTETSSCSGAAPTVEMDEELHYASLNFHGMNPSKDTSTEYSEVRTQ
T5 sequence (P20138 other isoform, or with tags, fused parts or gaps): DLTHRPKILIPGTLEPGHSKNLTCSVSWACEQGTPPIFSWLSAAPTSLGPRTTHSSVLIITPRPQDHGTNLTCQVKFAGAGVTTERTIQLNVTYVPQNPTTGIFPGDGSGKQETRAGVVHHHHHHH
T2 sequence (P20138 other isoform, or with tags, fused parts or gaps): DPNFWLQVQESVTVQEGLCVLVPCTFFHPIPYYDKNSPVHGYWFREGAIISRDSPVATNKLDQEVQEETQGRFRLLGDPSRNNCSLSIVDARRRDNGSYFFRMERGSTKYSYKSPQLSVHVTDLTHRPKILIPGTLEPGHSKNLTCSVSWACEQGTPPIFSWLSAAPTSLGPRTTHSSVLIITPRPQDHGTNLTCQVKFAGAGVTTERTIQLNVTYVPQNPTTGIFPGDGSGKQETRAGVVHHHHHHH
T4 sequence (P20138 18-364): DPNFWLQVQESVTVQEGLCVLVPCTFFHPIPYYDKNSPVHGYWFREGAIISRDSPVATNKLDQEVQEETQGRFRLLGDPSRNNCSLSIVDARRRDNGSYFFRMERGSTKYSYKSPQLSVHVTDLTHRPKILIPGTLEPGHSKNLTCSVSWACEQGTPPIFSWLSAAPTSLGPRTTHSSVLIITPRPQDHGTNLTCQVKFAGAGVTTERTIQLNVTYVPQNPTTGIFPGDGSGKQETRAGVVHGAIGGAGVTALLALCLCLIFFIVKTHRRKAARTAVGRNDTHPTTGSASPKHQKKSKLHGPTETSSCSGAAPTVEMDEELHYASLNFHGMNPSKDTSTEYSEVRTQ

Row | Binder | RLU [1] [RLU] | binding result [3] | MFI [4] [MFI] | EC50 [5] [nM] | EC50 [6] [nM] | binding result [7] | MFI [8] [MFI] | MFI [9] [MFI] | RLU [10] [RLU] | Kd [11] [nM] | kon [11] [M⁻¹ s⁻¹] | EC50 [12] [nM] | EC50 [13] [nM] | BLI total binding capacity (Reference Biosensor) [14] | EC50 (read off the curve) [15] [nM] | binding result [2]
1 | 4-P3 (antibody, V domains shown, AlivaMab mouse hybridoma antibody; also called 4-P3-A) VH: EVQLLESGGGLVQPGGSLRLSCAASGFTFSTYAMSWVRQAPGKGLEWVSAISGRGGSTYYTDSVKGRFTISRDNSKNTVSLQMNSLRAEDTAVYYCAGRGDYYYYYGMDVWGQGTTVTVSA VL: DIVMTQSPLSSPVTLGQPASISCRSSQSLVYSDGNTYLSWLQQRPGQPPRLLIYKISNRFSGVPDRFSGSGAGTDFTLKISRVEAEDVGVYYCMQSTQFPHTFGQGTKLEIK | 484000 | no binding | 188000 | 2 | 2.5 |  | 1.32e+06 | 391000 |  |  |  |  |  |  |  | 
2 | 1-P13 (antibody, V domains shown, AlivaMab mouse hybridoma antibody; also called 1-P13-A) VH: not shown VL: DVVMTQSPLSLPVSLGQPASISCRSSRGLVYSDVNTNLNWFQQRPGQSPRRLIYKVSNRDSGVPDRFSGSGSGTDFTLKISRVEAEDVGVYYCMQGTHWPWTFGQGTKVEIK | 117000 | no binding | 559000 | 5 | 6.33 | no binding | 2.15e+06 |  |  |  |  |  |  |  |  | 
3 | H195 (lintuzumab) (antibody, V domains shown) VH: QVQLVQSGAEVKKPGSSVKVSCKASGYTFTDYNMHWVRQAPGQGLEWIGYIYPYNGGTGYNQKFKSKATITADESTNTAYMELSSLRSEDTAVYYCARGRPAMDYWGQGTLVTVSS VL: DIQMTQSPSSLSASVGDRVTITCRASESVDNYGISFMNWFQQKPGKAPKLLIYAASNQGSGVPSRFSGSGSGTDFTLTISSLQPDDFATYYCQQSKEVPWTFGQGTKVEIK |  |  |  |  |  |  |  |  |  | 1.22 | 358000 | 0.4 | 4.8 | 0.743 |  | 
4 | 1J19 (recombinant, human IgG1 constant region) (antibody, V domains shown) VH: QVQLQQSGPGLVKPSQTLSLTCAISGDSVSSNSAAWNWIRQSPSRGLEWLGRTYFRSKWYNVYAVSVKSRITINPDTSKNQFSLQLNSVTPEDTAVYYCASEGGSYYDHWGQGTLVTVSS VL: DIQMTQSPSSVSASVGDRVTITCRASQGISNWLTWYQQKPGKAPKLLIYAASSLQSGVPSRFSGSGSGTDFTLTISSLQPEDFATYYCQQADSFPFTFGPGTKVDIK |  |  |  |  |  |  |  |  |  | 1.1 | 266000 | 2.16 | 6.54 | 0.432 | ~4 | 
5 | 1-J19 (hybridoma antibody) (antibody, V domains shown, AlivaMab mouse hybridoma antibody; also called 1-J19-A) VH: QVQLQQSGPGLVKPSQTLSLTCAISGDSVSSNSAAWNWIRQSPSRGLEWLGRTYFRSKWYNVYAVSVKSRITINPDTSKNQFSLQLNSVTPEDTAVYYCASEGGSYYDHWGQGTLVTVSS VL: DIQMTQSPSSVSASVGDRVTITCRASQGISNWLTWYQQKPGKAPKLLIYAASSLQSGVPSRFSGSGSGTDFTLTISSLQPEDFATYYCQQADSFPFTFGPGTKVDIK | 95600 |  | 339000 | 7.93 | 10.2 |  | 3.86e+06 |  | 15200 |  |  |  |  |  |  | no binding (tested: A signal >100,000 was used as cut off)
6 | 2-F18 (antibody, V domains shown, AlivaMab mouse hybridoma antibody; also called 2-F18-A) VH: QIQLVESGGGVVQPGRSLRLSCAASGFTFSAYPMHWVRQAPGKGLEWVAIISYDGSNNYYADSVKGRFTISRDNSKNTMYLQINSLRAEDTGVYYCARGKVGTLDFWGQGTLVTVSS VL: not shown | 251000 | no binding | 351000 | 24.2 | 11.9 |  | 3.56e+06 |  | 20400 |  |  |  |  |  |  | 

The remaining binders from weak to strong by EC50 [5], led by results:

Row | RLU [1] [RLU] | binding result [3] | MFI [4] [MFI] | EC50 [5] [nM] | EC50 [6] [nM] | binding result [7] | MFI [8] [MFI] | MFI [9] [MFI] | RLU [10] [RLU] | Kd [11] [nM] | kon [11] [M⁻¹ s⁻¹] | EC50 [12] [nM] | EC50 [13] [nM] | BLI total binding capacity (Reference Biosensor) [14] | EC50 (read off the curve) [15] [nM] | Binder | binding result [2]
7 | 41800 | no binding | 456000 | 1.4 | 1.07 | no binding | 4.08e+06 |  |  |  |  |  |  |  |  | 1-P23 (antibody, V domains shown, AlivaMab mouse hybridoma antibody; also called 1-P23-A) VH: QVQLVESGGGVVQPGRSLRLSCAASGFTFNSYGMHWVRQAPGKGLEWVAIISYDGSNKYYADSVKGRFTISRDNSKNTLYLQMNSLRAEDTAVYYCARDNYDSSGYNWYFDLWGRGTLVTVSS VL: SSELTQDPAVSVALGQTVRITCQGDSLRSYYASWYQQKPGQAPVLVIYGKNNRPSGIPDRFSGSSSGNTASLTITGAQAEDEADYYCNSRDSSGNLWVFGGGTKLTVL | no binding (tested: A signal >100,000 was used as cut off)
8 | 724000 | no binding | 409000 | 0.466 | 0.4 | no binding | 4.21e+06 |  |  |  |  |  |  |  |  | 2-N3 (antibody, V domains shown, AlivaMab mouse hybridoma antibody; also called 2-N3-A) VH: EVQLVQSGADVKKPGESLKISCKGSGFSFTSHWIAWVRQMPGKGLEWMGIIYPGDSDTRYSPSLQGRVTISADKSISTAYLQWSSLKASDTAMYFCARHETGNGYSYGMDVWGQGTTVTVSS VL: DIVMTQSPLSLPVTPGEPASISCRSSQSLLHSNGYNYLDWYLQKPGQSPQLLFSLGSNRASGVPDRFSGSGSGTDFSLKISRVEAEDVGLYYCMQALQPPLTFGGGTKVEIK | no binding (tested: A signal >100,000 was used as cut off)
9 | 117000 | no binding | 558000 | 0.4 | 0.6 | no binding | 1.98e+06 |  |  |  |  |  |  |  |  | 1-A20 (antibody, V domains shown, AlivaMab mouse hybridoma antibody; also called 1-A20-A) VH: QVQLQESGPGLVKPSETLSLTCTVSGDSISSYYWSWIRQPAGKGLEWIGRIYTSGNTNYNPSLKSRVTMSVDKSKNQFSLKLRSVTAADTAVYYCARDGDNRDSDAFDIWGQGTMVTVSS VL: SPGTLSLSPGERATLSCRASQNISSSYLAWCQQKPGQAPRLFIYGTSRRATGIPDRFSGSGSGTDFTLTISRLEPEDFAVYYCQQYGSSPLTFGGGTKVEIK | no binding (tested: A signal >100,000 was used as cut off)
10 | 132000 | no binding | 479000 | 0.4 | 0.866 |  | 1.75e+06 |  | 58900 |  |  |  |  |  |  | 1-H19 (antibody, V domains shown, AlivaMab mouse hybridoma antibody; also called 1-H19-A) VH: QVQLQESGPGLVKPSETLSLTCTVSGGSISTYYWSWIRQPAGKGLEWIGRIYTSGNTNYNPSLKSRVTMSVDTSKNQLSLKLRSVTAADTAVYYCARDGDNRNSDAFDIWGQGTMVTVSS VL: QSVLTQPPSVSGAPGQRVTISCTGSSSNIGAGYDVHWYQQLPGTAPKLLIYGNSNRPSGVPDRFSGSKSGTSASLAITGLQAEDEADYYCQSYDRSLSGWVFGGGTKLTVL | 
